The values below come from PMC4160250 (PLoS ONE, 2014).

The chains are these.
B1: UbP_C (C-terminal part of DC-UbP, residues 129-234), His-tagged (domain or fragment, human, UniProt Q8WUN7 129-234, looked up)
chain: MIEEKSDIETLDIPEPPPNSGYECQLRLRLSTGKDLKLVVRSTDTVFHMKRRLHAAEGVEPGSQRWFFSGRPLTDKMKFEELKIPKDYVVQVIVSQPVQNPTPVEN
notes: 15N-labelled where it is the observed protein of an NMR titration, unlabelled where it is titrated into 15N-UBA1; also called UbL domain of DC-UbP; UbL; source: E. coli, purified (Ni-NTA, Superdex-75)
B2: His-tagged DC-UbP (natural protein, human, UniProt Q8WUN7 1-234, looked up)
chain: MGGCVGAQHDSSGSLNENSEGTGVALGRNQPLKKEKPKWKSDYPMTDGQLRSKRDEFWDTAPAFEGRKEIWDALKAAAHAFESNDHELAQAIIDGANITLPHGALTECYDELGNRYQLPVYCLAPPINMIEEKSDIETLDIPEPPPNSGYECQLRLRLSTGKDLKLVVRSTDTVFHMKRRLHAAEGVEPGSQRWFFSGRPLTDKMKFEELKIPKDYVVQVIVSQPVQNPTPVEN
notes: DC-UbP / UBTD2, human, full-length; vector pET22b(+); 15N-labelled (M9 medium) in the NMR titrations; also called His6-DC-UbP; full-length DC-UbP; source: E. coli, purified (Ni-NTA, Superdex-75)
B3: GST-fused UFD domain of UbE1 (residues 950-1058) (domain or fragment)
chain: not shown
notes: UbE1, residues 950-1058 (C-terminal Ub-fold domain, UFD), from the UbE1 that was cloned from a mouse cDNA library; vector pGEX-4T-3; also called GST-UFD; C-terminal Ub-fold domain; source: E. coli, purified
B4: UbE1, recombinant, purified (enzyme, mouse, UniProt Q02053 1-1058, looked up)
chain: MSSSPLSKKRRVSGPDPKPGSNCSPAQSALSEVSSVPTNGMAKNGSEADIDESLYSRQLYVLGHEAMKMLQTSSVLVSGLRGLGVEIAKNIILGGVKAVTLHDQGTTQWADLSSQFYLREEDIGKNRAEVSQPRLAELNSYVPVTAYTGPLVEDFLSSFQVVVLTNSPLEAQLRVGEFCHSRGIKLVVADTRGLFGQLFCDFGEEMVLTDSNGEQPLSAMVSMVTKDNPGVVTCLDEARHGFETGDFVSFSEVQGMIQLNGCQPMEIKVLGPYTFSICDTSNFSDYIRGGIVSQVKVPKKISFKSLPASLVEPDFVMTDFAKYSRPAQLHIGFQALHQFCALHNQPPRPRNEEDATELVGLAQAVNARSPPSVKQNSLDEDLIRKLAYVAAGDLAPINAFIGGLAAQEVMKACSGKFMPIMQWLYFDALECLPEDKEALTEEKCLPRQNRYDGQVAVFGSDFQEKLSKQKYFLVGAGAIGCELLKNFAMIGLGCGEGGEVVVTDMDTIEKSNLNRQFLFRPWDVTKLKSDTAAAAVRQMNPYIQVTSHQNRVGPDTERIYDDDFFQNLDGVANALDNIDARMYMDRRCVYYRKPLLESGTLGTKGNVQVVIPFLTESYSSSQDPPEKSIPICTLKNFPNAIEHTLQWARDEFEGLFKQPAENVNQYLTDSKFVERTLRLAGTQPLEVLEAVQRSLVLQRPQTWGDCVTWACHHWHTQYCNNIRQLLHNFPPDQLTSSGAPFWSGPKRCPHPLTFDVNNTLHLDYVMAAANLFAQTYGLTGSQDRAAVASLLQSVQVPEFTPKSGVKIHVSDQELQSANASVDDSRLEELKATLPSPDKLPGFKMYPIDFEKDDDSNFHMDFIVAASNLRAENYDISPADRHKSKLIAGKIIPAIATTTAAVVGLVCLELYKVVQGHQQLDSYKNGFLNLALPFFGFSEPLAAPRHQYYNQEWTLWDRFEVQGLQPNGEEMTLKQFLDYFKTEHKLEITMLSQGVSMLYSFFMPAAKLKERLDQPMTEIVSRVSKRKLGRHVRALVLELCCNDESGEDVEVPYVRYTIR
notes: also called purified UbE1; source: E. coli (vector pET28a), purified

Holding throughout (details): both partners purified
For assay [1], the target named is B3. As to the kind of experiment: NMR titration; 15N-labelled UbP_N or UbP_C titrated with GST-UFD at a molar ratio of 1:3; peak intensity changes.
In assay [2] the target is B4. As to the kind of experiment: NMR titration; 15N-labelled DC-UbP (100 uM) titrated stepwise with unlabelled USP5, UbE1, FH or SCCH; 1H-15N HSQC, 20 mM phosphate, 50 mM NaCl, pH 6.5, 298 K.
The target in assay [3] is B2. As to the kind of experiment: NMR titration; 15N-labelled DC-UbP (20 uM in Fig. S4C) titrated with GST-UFD, up to 5:1; relative peak intensities.
Assay [4] concerns the target B2. As to the kind of experiment: NMR titration; 15N-labelled DC-UbP (100 uM) titrated stepwise with unlabelled USP5, UbE1, FH or SCCH; 1H-15N HSQC, 20 mM phosphate, 50 mM NaCl, pH 6.5, 298 K.

On to B1, for which the binding result in assay [1] is recorded as “binds”. In the case of B2, the binding result in assay [2] was “binds”. Take B3: in the assay with His-tagged DC-UbP [3], the “mean relative peak intensity of the UBD domain of DC-UbP at 5:1 molar ratio” value was 0.69 and the “mean relative peak intensity of the UbL domain of DC-UbP at 5:1 molar ratio” value stood at 0.44. B4: in the assay with His-tagged DC-UbP [4], the “mean relative peak intensity of the UBD domain of DC-UbP at 1:1 molar ratio (free DC-UbP = 1)” value came to 0.54 and the “mean relative peak intensity of the UbL domain of DC-UbP at 1:1 molar ratio (free DC-UbP = 1)” value is 0.39.
